biological target: T1, HLA-A*24; test: UV peptide-exchange ELISA (anti-b2m); yield grade ++++ = >75%
T1 construct: Monomers captured on streptavidin plates; also called peptide-receptive MHC molecules; MHC complexes
Description: Candidate peptides for T cell based therapies according to the present invention were further tested for their MHC binding capacity (affinity). The individual peptide-MHC complexes were produced by UV-ligand exchange, where a UV-sensitive peptide is cleaved upon UV-irradiation, and exchanged with the peptide of interest as analyzed. Only peptide candidates that can effectively bind and stabilize the peptide-receptive MHC molecules prevent dissociation of the MHC complexes. To determine the yield of the exchange reaction, an ELISA was performed based on the detection of the light chain (p2m) of stabilized MHC complexes. The assay was performed as generally described in Rodenko et al. (Rodenko et al., 2006)
96 well MAXISorp plates (NUNC) were coated over night with 2 ug/ml streptavidin in PBS at room temperature, washed 4× and blocked for 1 h at 37° C. in 2% BSA containing blocking buffer. Refolded HLA-A*02:01/MLA-001 monomers served as standards, covering the range of 15-500 ng/ml. Peptide-MHC monomers of the UV-exchange reaction were diluted 100-fold in blocking buffer. Samples were incubated for 1 h at 37° C., washed four times, incubated with 2 ug/ml HRP conjugated anti-β2m for 1h at 37° C., washed again and detected with TMB solution that is stopped with […]. Absorption was measured at 450 nm. Candidate peptides that show a high exchange yield (preferably higher than 50%, most preferred higher than 75%) are generally preferred for a generation and production of antibodies or fragments thereof, and/or T cell receptors or fragments thereof, as they show sufficient avidity to the MHC molecules and prevent dissociation of the MHC complexes.

Binder | peptide exchange yield
AYAPRGSIYKF (also called AYAPRGSIYKF) [HHIPL2-001] | > 75%
ALMSAFYTF (also called ALMSAFYTF) [MMP11-020] | > 75%
MLPEASLLI (also called MLPEASLLI) [NLRP4-005] | > 75%
YYIGIVEEYW (also called YYIGIVEEYW) [HEPHL-008] | > 75%
AFQNVISSF (also called AFQNVISSF) [NMUR2-003] | > 75%
HYHAESFLF (also called HYHAESFLF) [HEPHL-003] | > 75%
IYVSLAHVL (also called IYVSLAHVL) [ANO7-002] | > 75%
VYAFMNENF (also called VYAFMNENF) [QRFPR-004] | > 75%
RYLSVCERL (also called RYLSVCERL) [NKX-001] | > 75%
VFPSVDVSF (also called VFPSVDVSF) [PTP-043] | > 75%
IFIPATILL (also called IFIPATILL) [ACSM1-001] | > 75%
LYMSVEDFI (also called LYMSVEDFI) [STK31-001] | > 75%
TYFFVDNQYW (also called TYFFVDNQYW) [MMP12-020] | > 75%
IYNKTKMAF (also called IYNKTKMAF) [SLCO6-001] | > 75%
AWSPPATLF (also called AWSPPATLF) [LOXL4-002] | > 75%
LYPDSVFGRLF (also called LYPDSVFGRLF) [SMC1B-003] | > 75%
QYLQQQAKL (also called QYLQQQAKL) [FOXB1-002] | > 75%
RWLSKPSLL (also called RWLSKPSLL) [KBTBD8-004] | > 75%
IFLPFFIVF (also called IFLPFFIVF) [ADAM18-001] | > 75%
IYKFIMDRF (also called IYKFIMDRF) [FOXB1-001] | > 75%
IYNEHGIQQI (also called IYNEHGIQQI) [COL11A1-003] | > 75%
YYIATMALI (also called YYIATMALI) [CHRNA9-004] | > 75%
FYFYNCSSL (also called FYFYNCSSL) [ERV-001] | > 75%
IYTFSNVTF (also called IYTFSNVTF) [BTN1-003] | > 75%
KYVDINTFRL (also called KYVDINTFRL) [MMP12-018] | > 75%
QKYYITGEAEGF (also called QKYYITGEAEGF) [ESR1-009] | > 75%
PYWWNANMVF (also called PYWWNANMVF) [NOTU-001] | > 75%

Binder | peptide exchange yield
AYLQFLSVL (also called AYLQFLSVL) [GREB-002] | > 75%
ISWEVVHTVF (also called ISWEVVHTVF) [HMCN1-008] | > 75%
FFLQESPVF (also called FFLQESPVF) [ABCC11-004] | > 75%
LYAPTILLW (also called LYAPTILLW) [AFP-001] | > 75%
TYSTNRTMI (also called TYSTNRTMI) [FLT3-013] | > 75%
KYLITTFSL (also called KYLITTFSL) [NLRP2-008] | > 75%
TQAGEYLLF (also called TQAGEYLLF) [FLT3-012] | > 75%
PYSIYPHGVTF (also called PYSIYPHGVTF) [F5-006] | > 75%
MYDLHHLYL (also called MYDLHHLYL) [EPY-001] | > 75%
TYATHVTEI (also called TYATHVTEI) [CCR8-004] | > 75%
QRYGFSSVGF (also called QRYGFSSVGF) [RHBG-001] | > 75%
LSSPVHLDF (also called LSSPVHLDF) [FCRL5-007] | > 75%
IYPEAIATL (also called IYPEAIATL) [SLC6A3-002] | > 75%
CYSFIHLSF (also called CYSFIHLSF) [NLR-006] | > 75%
MYTIVTPML (also called MYTIVTPML) [OR1N1-001] | > 75%
FFYVTETTF (also called FFYVTETTF) [TERT-003] | > 75%
LYICKVELM (also called LYICKVELM) [CTL-001] | > 75%
LYYGSILYI (also called LYYGSILYI) [OR9-001] | > 75%
FYNRLTKLF (also called FYNRLTKLF) [OFCC-001] | > 75%
LYTVPFNLI (also called LYTVPFNLI) [SLC45A2-006] | > 75%
RYFIAAEKILW (also called RYFIAAEKILW) [HEPHL-005] | > 75%
IFPKTGLLII (also called IFPKTGLLII) [MAGEA4-008] | > 75%
AYPQIRCTW (also called AYPQIRCTW) [FLT3-009] | > 75%
IWPGFTTSI (also called IWPGFTTSI) [PIWIL1-003] | > 75%
IYSSQLPSF (also called IYSSQLPSF) [TFEC-004] | > 75%
VYSNPDLFW (also called VYSNPDLFW) [TRDV3-002] | > 75%
VYISDVSVY (also called VYISDVSVY) [CLECL-003] | > 75%

— US20190352359A1 (IMMATICS BIOTECHNOLOGIES, published 2019)
